Data taken from US20240279325A1 (Chugai, published 2024).
Substitutions are numbered along the chain they refer to. Names and notes keep the numbering of the source.

T1: FcγRIIb extracellular domain with C-terminal His tag (human, UniProt P31994 43-217)
T1 construct: extracellular domain
T1 sequence (looked up): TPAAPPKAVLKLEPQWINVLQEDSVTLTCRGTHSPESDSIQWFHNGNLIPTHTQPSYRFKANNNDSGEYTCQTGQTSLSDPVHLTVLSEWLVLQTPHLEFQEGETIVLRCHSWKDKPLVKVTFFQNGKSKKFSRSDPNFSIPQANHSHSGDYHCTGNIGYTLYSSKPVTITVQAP

T2: FcγRIIa type R (allotype R131) extracellular domain with C-terminal His tag (human, UniProt P12318 34-217)
T2 construct: extracellular domain; also called FcγRIIaR; FcγRIIa R type
T2 sequence (looked up): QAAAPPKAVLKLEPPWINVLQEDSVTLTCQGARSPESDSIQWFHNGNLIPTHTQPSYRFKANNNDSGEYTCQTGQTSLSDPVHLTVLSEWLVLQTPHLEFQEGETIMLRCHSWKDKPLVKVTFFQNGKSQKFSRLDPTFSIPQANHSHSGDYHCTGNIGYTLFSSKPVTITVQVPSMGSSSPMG

B1: IL6R-BP118/IL6R-L (antibody, human IgG1, kappa, name in EU numbering)
heavy: QVQLQESGPGLVKPSETLSLTCAVSGHSISHDHAWSWVRQPPGEGLEWIGFISYSGITNYNPSLQGRVTISRDNSKNTLYLQMNSLRAEDTAVYYCARSLARTTAMDYWGEGTLVTVSSASTKGPSVFPLAPSSKSTSGGTAALGCLVKDYFPEPVTVSWNSGALTSGVHTFPAVLQSSGLYSLSSVVTVPSSSLGTQTYICNVNHKPSNTKVDKKVEPKSCDKTHTCPPCPAPELLGGDSVFLFPPKPKDTLMISRTPEVTCVVVDVSHEDPEVKFNWYVDGVEVHNAKTKPREEQYNSTYRVVSVLTVLHQDWLNGKEYKCKVSNSALPAPIEKTISKAKGQPREPQVYTLPPSRDELTKNQVSLTCLVKGFYPSDIAVEWESNGQPENNYKTTPPVLDSDGSFFLYSKLTVDKSRWQQGNVFSCSVMHEALHNHYTQESLSLSP
light: not shown
notes: Alterations introduced into IL6R-B3; also called P238D/K326S; copies: 2 + 2
B2: IL6R-BP912/IL6R-L (antibody, human IgG1, kappa, name in EU numbering)
heavy: B1 heavy with S328K, A332R
light: not shown
notes: Alterations introduced into IL6R-B3; also called P238D/A330R; copies: 2 + 2
B3: IL6R-BP136/IL6R-L (antibody, human IgG1, kappa, name in EU numbering)
heavy: B1 heavy with S328A
light: not shown
notes: Alterations introduced into IL6R-B3; also called P238D/K326A; copies: 2 + 2
B4: IL6R-BP119/IL6R-L (antibody, human IgG1, kappa, name in EU numbering)
heavy: B1 heavy with S328M
light: not shown
notes: Alterations introduced into IL6R-B3; also called P238D/K326M; copies: 2 + 2
B5: IL6R-BP126/IL6R-L (antibody, human IgG1, kappa, name in EU numbering)
heavy: B1 heavy with S328L
light: not shown
notes: Alterations introduced into IL6R-B3; also called P238D/K326L; copies: 2 + 2
B6: IL6R-BP142/IL6R-L (antibody, human IgG1, kappa, name in EU numbering)
heavy: B1 heavy with S328N
light: not shown
notes: Alterations introduced into IL6R-B3; also called P238D/K326N; copies: 2 + 2
B7: IL6R-BP911/IL6R-L (antibody, human IgG1, kappa, name in EU numbering)
heavy: B1 heavy with S328K, A332K
light: not shown
notes: Alterations introduced into IL6R-B3; also called P238D/A330K; copies: 2 + 2
B8: IL6R-BP121/IL6R-L (antibody, human IgG1, kappa, name in EU numbering)
heavy: B1 heavy with S328Q
light: not shown
notes: Alterations introduced into IL6R-B3; also called P238D/K326Q; copies: 2 + 2
B9: IL6R-BP120/IL6R-L (antibody, human IgG1, kappa, name in EU numbering)
heavy: B1 heavy with S328E
light: not shown
notes: Alterations introduced into IL6R-B3; also called P238D/K326E; copies: 2 + 2
B10: IL6R-BP489/IL6R-L (antibody, human IgG1, kappa, name in EU numbering)
heavy: B1 heavy with E235D, G239D, V266I, S269A, H270E, P273G, Y298D, S328K, A332R, P398M
light: not shown
notes: copies: 2 + 2
B11: IL6R-BP498/IL6R-L (antibody, human IgG1, kappa, name in EU numbering)
heavy: B1 heavy with E235D, G239D, V266I, S269A, H270E, P273G, S328K, A332R, P398L
light: not shown
notes: copies: 2 + 2
B12: IL6R-BP499/IL6R-L (antibody, human IgG1, kappa, name in EU numbering)
heavy: B1 heavy with E235D, G239D, V266I, S269A, H270E, P273G, Y298D, S328K, A332R, P398L
light: not shown
notes: copies: 2 + 2
B13: IL6R-BP481/IL6R-L (antibody, human IgG1, kappa, name in EU numbering)
heavy: B1 heavy with E235D, G239D, V266I, S269A, H270E, P273G, S328K
light: not shown
notes: copies: 2 + 2
B14: IL6R-BP497/IL6R-L (antibody, human IgG1, kappa, name in EU numbering)
heavy: B1 heavy with E235D, G239D, V266I, S269A, H270E, P273G, S328K, A329G, A332R
light: not shown
notes: copies: 2 + 2
B15: IL6R-BP483/IL6R-L (antibody, human IgG1, kappa, name in EU numbering)
heavy: B1 heavy with E235D, G239D, V268L, S269A, H270E, P273G, S328K
light: not shown
notes: copies: 2 + 2
B16: IL6R-BP508/IL6R-L (antibody, human IgG1, kappa, name in EU numbering)
heavy: B1 heavy with E235D, G239D, V266I, S269A, H270E, P273G, E274P, Y298D, S328K
light: not shown
notes: copies: 2 + 2
B17: IL6R-BP491/IL6R-L (antibody, human IgG1, kappa, name in EU numbering)
heavy: B1 heavy with G239D, V266I, S269A, H270E, P273G, Y298D, S328K, A332R
light: not shown
notes: also called IL6R-491/IL6R-L; copies: 2 + 2
B18: IL6R-BP479/IL6R-L (antibody, human IgG1, kappa, name in EU numbering)
heavy: B1 heavy with E235D, G239D, V266I, V268L, S269A, H270E, P273G, S328K
light: not shown
notes: copies: 2 + 2
B19: IL6R-BP492/IL6R-L (antibody, human IgG1, kappa, name in EU numbering)
heavy: B1 heavy with V266I, S269A, H270E, P273G, S328K
light: not shown
notes: copies: 2 + 2
B20: IL6R-BP500/IL6R-L (antibody, human IgG1, kappa, name in EU numbering)
heavy: B1 heavy with G239D, V266I, S269A, H270E, P273G, Y298D, S328K
light: not shown
notes: copies: 2 + 2
B21: IL6R-BP484/IL6R-L (antibody, human IgG1, kappa, name in EU numbering)
heavy: B1 heavy with E235D, G239D, S269A, H270E, E271D, P273G, S328K
light: not shown
notes: copies: 2 + 2
B22: IL6R-BP269/IL6R-L (antibody, human IgG1, kappa, name in EU numbering)
heavy: B1 heavy with G239D, H270E, P273G, Y298D, S328K
light: not shown
notes: copies: 2 + 2
B23: IL6R-BP505/IL6R-L (antibody, human IgG1, kappa, name in EU numbering)
heavy: B1 heavy with E235D, G239D, V266I, S269A, H270E, P273G, E274D, S328K
light: not shown
notes: copies: 2 + 2
B24: IL6R-BP502/IL6R-L (antibody, human IgG1, kappa, name in EU numbering)
heavy: B1 heavy with E235D, G239D, V266I, S269A, H270E, P273G, Y298D, S328K, A329G, A332R
light: not shown
notes: copies: 2 + 2
B25: IL6R-BP503/IL6R-L (antibody, human IgG1, kappa, name in EU numbering)
heavy: QVQLQESGPGLVKPSETLSLTCAVSGHSISHDHAWSWVRQPPGEGLEWIGFISYSGITNYNPSLQGRVTISRDNSKNTLYLQMNSLRAEDTAVYYCARSLARTTAMDYWGEGTLVTVSSASTKGPSVFPLAPSSKSTSGGTAALGCLVKDYFPEPVTVSWNSGALTSGVHTFPAVLQSSGLYSLSSVVTVPSSSLGTQTYICNVNHKPSNTKVDKKVEPKSCDKTHTCPPCPAPDLLGDDSVFLFPPKPKDTLMISRTPEVTCVVIDVAEEDGEVKFNWYVDGVEVHNAKTKPREEQDNSTYRVVSVLTVLHQDWLNGKEYKCKVSNKGLPRPIEKTISKAKGQPREPQVYTLPPSRDELTKNQVSLTCLVKGFYPSDIAVEWESNGQPENNYKTTPMVLDSDGSFFLYSKLTVDKSRWQQGNVFSCSVMHEALHNHYTQESLSLSP
light: not shown
notes: copies: 2 + 2
B26: IL6R-BP487/IL6R-L (antibody, human IgG1, kappa, name in EU numbering)
heavy: B25 heavy with D298Y, G329A
light: not shown
notes: copies: 2 + 2
B27: IL6R-BP496/IL6R-L (antibody, human IgG1, kappa, name in EU numbering)
heavy: B25 heavy with G329A, R332A, M398P
light: not shown
notes: copies: 2 + 2
B28: IL6R-BP262/IL6R-L (antibody, human IgG1, kappa, name in EU numbering)
heavy: B1 heavy with G239D, H270E, P273G, S328K
light: not shown
notes: copies: 2 + 2

biological target: T3, human FcγRIIIa type V (allotype V158) extracellular domain with C-terminal His tag (human, UniProt P08637 17-208); experiment: SPR (Biacore), antibody captured, FcγR analyte
T3 construct: also called FcγRIIIaV
T3 sequence (P08637 other isoform, or with tags, fused parts or gaps): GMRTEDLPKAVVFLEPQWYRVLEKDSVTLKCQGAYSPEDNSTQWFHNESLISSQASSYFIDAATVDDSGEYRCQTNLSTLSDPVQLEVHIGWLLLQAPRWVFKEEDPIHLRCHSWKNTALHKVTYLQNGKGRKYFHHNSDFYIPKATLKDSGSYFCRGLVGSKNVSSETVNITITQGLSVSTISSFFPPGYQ

| Binder | Kd |
| --- | --- |
| B1 | 56 µM |
| B2 | 78 µM |
| B3 | 69 µM |
| B4 | 56 µM |
| B5 | 56 µM |
| B6 | 110 µM |
| B7 | 58 µM |
| B8 | 52 µM |
| B9 | 79 µM |

biological target: T1, FcγRIIb extracellular domain with …; experiment: SPR; KD for FcγRIIaH divided by KD for FcγRIIb

| Binder | KD(IIaH)/KD(IIb) |
| --- | --- |
| B10 | 870 |
| B11 | 564 |
| B12 | 685 |
| B13 | 350 |
| B14 | 236 |
| B15 | 231 |
| B16 | 962 |
| B17 | 724 |
| B18 | 268 |
| B19 | 678 |
| B20 | 1030 |
| B21 | 241 |
| B22 | 637 |
| B23 | 514 |
| B24 | 352 |
| B25 | 503 |
| B26 | 730 |
| B27 | 201 |
| B28 | 375 |

biological target: T1, FcγRIIb extracellular domain with …; experiment: SPR; KD for FcγRIIaR divided by KD for FcγRIIb

| Binder | KD(IIaR)/KD(IIb) |
| --- | --- |
| B10 | 42.8 |
| B11 | 30.3 |
| B12 | 33.8 |
| B13 | 20.5 |
| B14 | 21 |
| B16 | 26 |
| B17 | 38.8 |
| B18 | 16.1 |
| B19 | 38.8 |
| B20 | 29.9 |
| B21 | 17.1 |
| B22 | 19.6 |
| B23 | 20 |
| B24 | 29.5 |
| B25 | 33.2 |
| B26 | 33.8 |
| B27 | 25.5 |
| B28 | 17 |

biological target: T2, FcγRIIa type R (allotype R131) …; experiment: SPR; KD of IL6R-B3/IL6R-L divided by KD of the variant

| Binder | KD(IIaR) OF PARENT POLYPEPTIDE/KD(IIaR) OF ALTERED POLYPEPTIDE |
| --- | --- |
| B10 | 25.7 |
| B11 | 21.7 |
| B12 | 22.3 |
| B13 | 2.8 |
| B14 | 12.9 |
| B15 | 0.8 |
| B16 | 2 |
| B17 | 9.3 |
| B18 | 1.2 |
| B19 | 1.2 |
| B20 | 1.5 |
| B21 | 1.4 |
| B22 | 0.5 |
| B23 | 2.6 |
| B24 | 10.1 |
| B25 | 19.4 |
| B26 | 28.3 |
| B27 | 2.3 |
| B28 | 0.5 |

biological target: T1, FcγRIIb extracellular domain with …; experiment: as above

| Binder | KD(IIb) OF PARENT POLYPEPTIDE/KD(IIb) OF ALTERED POLYPEPTIDE |
| --- | --- |
| B10 | 3100 |
| B11 | 1880 |
| B12 | 2120 |
| B13 | 160 |
| B14 | 764 |
| B15 | 39.7 |
| B16 | 149 |
| B17 | 1020 |
| B18 | 55.5 |
| B19 | 131 |
| B20 | 128 |
| B21 | 67.3 |
| B22 | 27.4 |
| B23 | 145 |
| B24 | 810 |
| B25 | 1810 |
| B26 | 2700 |
| B27 | 168 |
| B28 | 25.8 |
